{"source": "patent US20100260765A1", "about": "(AstraZeneca / MedImmune, published 2010)", "binders": {"B1": {"name": "31E11 (antibody, V domains shown)", "VH": "QVQLVESGGGLVKPGGSLRLSCAASGFTFSDYYMSWIRQAPGKGLEWVSYISISGSTIYYADSVKGRFTISRDNAKNSLYLQMNSLRAEDTAVYYCARDDFWSGYYFNWFDPWGQGTLVTVSS", "VL": "DIQMTQSPSSLSASVGDRVTITCRANQTISTFLNWYQQNPGKAPKLLIYAASSLQSGVPSRFSGSGSGTDFTLTISSLQPEDFATYYCQQTYIIPLTFGGGTKVEIK"}, "B2": {"name": "22B8 (antibody, V domains shown)", "VH": "QLQLQESGPGLVKPSETLSLTCTVSGGSISSRYYYWGWVRQPPGKGLEWIGTIYYSGHTYYNPSLKTRVTISVDTSKNQFSLKLISVTAADTAVYYCATQQLVLYYFDFWGQGTLVTVSS", "VL": "EIVLTQSPGTLSLSPGERAALSCRASQSISSSYLAWYQQRPGQAPRLLIYGASSRATGIPDRFNGSGSGTDFTLTISRLEPEDFAVYYCQQFGSSITFGQGTRLEIK"}, "B3": {"name": "27A3 (antibody, V domains shown)", "VH": "B2 VH with Y33S, Y34D, V39I, H58D, T67S, I85S, T99R, F109Y", "VL": "EIVLTQSPGTLSLSPGERATLSCRASQSVSSSYLAWYQQKPGQAPRLLIYATSNRATGIPDRFSGSGSGTDFTLTISRLEPEDFAVYYCQQHGSSPPLTFGGGTKVEIK"}, "B4": {"name": "32F4 (antibody, V domains shown)", "VH": "QLQLQESGPGLVKPSGTLSLSCTVSGGSISSRSDYWGWIRQPPGKGLEWIGTIYYSGNTFYNPSLKSRVTISVDTSKKQFSLKLSSVTAADTAVYYCARQQLVLYYFDYWGQGTLVTVSS", "VL": "B3 VL with A25T, A51G, T52A, N54S, I59V, T73S, H92Y"}, "B5": {"name": "29D4 (antibody, V domains shown)", "VH": "B4 VH with G16E, S21T, D34N, N58H, F60Y, T70S, K78N, A90T, V94L, D108E", "VL": "not shown"}, "B6": {"name": "33B1 (antibody, V domains shown)", "VH": "EVQLVESGGGLVKPGGSLRLSCAASGFTFSSYTMNWVRQAPGKGLEWVSFIDSRSSYIYYADSVKGRFTISRDNAKNSLYLQMNSLRAEDTAVYYCSKDDWFEELWGQGTLVTVSS", "VL": "DIQMTQSPSSLSASVGDRVTITCRASQGIRNDLGWYQQKPGKAPKRLIYATSSLQSGVPSRFSGSGSGTEFTLTISSLQPEDFATYYCLHHNSFPWTFGQGTKVEIK"}, "B7": {"name": "33E1 (antibody, V domains shown)", "VH": "QVQLQESGPGLVKPSQTLSLTCTVSGGSISSGDHYWSWIRQHPGKGLEWIGHIYYSGSTDYNPSLKSRVTISVDTSKNHFSLKLNSVTAADTAVYYCARTNSSSWSDWYFDLWGRGTLVTVSS", "VL": "DIVMTQSPDSLAVSLGERATINCKSSQSILYSSNNKNYLAWYQRKPGQPPILLIHWASTRESGVPDRFSGSGSRTDFTLTISSLQAEDVAVYYCQQYFITPWTFGQGTKVEIK"}, "B8": {"name": "21H6 (antibody, V domains shown)", "VH": "QVQLVESGGGLVKPGGSLRLSCAASGFTFSDYYMSWIRQAPGKGLEWVSYISNSGITIYYADSVKGRFTISRDNAKNSLYLQMNSLRAGDTAVYYCAREEWYSSRWYRNFDYWGQGTLVTVSS", "VL": "DIQMTQFSSSLSASVGDRVTITCRASQSISRYLNWYQQKPGKAPKLLIYAASSLQSGVPSRFNGSGSGTDFTLTISSLQPEDFATYYCQQSYSAPLTFGGGTKVEIK"}}, "note": "Positions count from the first letter of the chain named.", "data": [{"molecular_target": "human KDR on cells (human, UniProt P35968 20-1356)", "sequence (P35968 20-1356)": "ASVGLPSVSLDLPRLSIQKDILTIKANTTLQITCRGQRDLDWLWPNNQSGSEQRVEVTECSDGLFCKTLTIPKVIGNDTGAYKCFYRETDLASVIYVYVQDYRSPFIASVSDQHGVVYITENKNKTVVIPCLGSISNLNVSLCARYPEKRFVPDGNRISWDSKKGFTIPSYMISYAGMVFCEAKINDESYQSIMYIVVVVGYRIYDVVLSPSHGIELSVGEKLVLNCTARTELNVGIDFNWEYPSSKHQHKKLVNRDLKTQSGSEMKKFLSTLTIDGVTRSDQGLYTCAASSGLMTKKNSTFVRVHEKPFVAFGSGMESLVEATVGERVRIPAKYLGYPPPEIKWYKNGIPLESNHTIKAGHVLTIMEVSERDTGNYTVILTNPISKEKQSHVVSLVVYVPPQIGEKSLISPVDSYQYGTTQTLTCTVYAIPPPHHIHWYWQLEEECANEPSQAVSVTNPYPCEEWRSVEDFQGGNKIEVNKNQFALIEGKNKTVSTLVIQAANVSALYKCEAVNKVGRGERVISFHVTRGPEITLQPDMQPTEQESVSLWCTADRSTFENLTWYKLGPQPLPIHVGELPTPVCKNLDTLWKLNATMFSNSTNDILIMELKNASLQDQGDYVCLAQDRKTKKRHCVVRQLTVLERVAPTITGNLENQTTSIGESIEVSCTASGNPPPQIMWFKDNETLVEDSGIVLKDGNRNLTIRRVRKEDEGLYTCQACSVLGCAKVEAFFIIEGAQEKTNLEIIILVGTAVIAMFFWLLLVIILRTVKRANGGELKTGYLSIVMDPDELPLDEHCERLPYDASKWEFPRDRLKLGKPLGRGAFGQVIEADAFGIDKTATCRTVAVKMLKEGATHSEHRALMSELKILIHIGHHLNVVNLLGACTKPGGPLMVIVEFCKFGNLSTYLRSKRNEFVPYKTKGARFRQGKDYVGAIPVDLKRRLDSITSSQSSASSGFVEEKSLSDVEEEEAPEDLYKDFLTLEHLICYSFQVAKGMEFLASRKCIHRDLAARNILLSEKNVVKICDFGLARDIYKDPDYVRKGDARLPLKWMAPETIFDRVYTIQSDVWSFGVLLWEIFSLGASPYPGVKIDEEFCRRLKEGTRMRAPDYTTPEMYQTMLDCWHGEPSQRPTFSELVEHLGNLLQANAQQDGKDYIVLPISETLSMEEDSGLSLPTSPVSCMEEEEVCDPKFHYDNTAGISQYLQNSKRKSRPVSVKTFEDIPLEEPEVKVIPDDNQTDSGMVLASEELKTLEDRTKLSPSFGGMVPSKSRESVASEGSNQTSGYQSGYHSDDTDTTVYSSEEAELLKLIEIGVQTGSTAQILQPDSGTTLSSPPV", "test": "cell-based or functional assay", "units": {"% Inhibition (Average) of VEGF-C-mediated KDR activity, antibody 1 nM": "%", "% Inhibition (Average) of VEGF-C-mediated KDR activity, antibody 10 nM": "%", "% Inhibition (Average) of VEGF-C-mediated KDR activity, antibody 100 nM": "%", "% Inhibition (N = 1) of VEGF-C-mediated KDR activity, antibody 1 nM": "%", "% Inhibition (N = 1) of VEGF-C-mediated KDR activity, antibody 10 nM": "%", "% Inhibition (N = 1) of VEGF-C-mediated KDR activity, antibody 100 nM": "%", "% Inhibition (N = 2) of VEGF-C-mediated KDR activity, antibody 1 nM": "%", "% Inhibition (N = 2) of VEGF-C-mediated KDR activity, antibody 10 nM": "%", "% Inhibition (N = 2) of VEGF-C-mediated KDR activity, antibody 100 nM": "%"}, "values": [{"binder": "B1", "% Inhibition (Average) of VEGF-C-mediated KDR activity, antibody 1 nM": 40, "% Inhibition (Average) of VEGF-C-mediated KDR activity, antibody 10 nM": 83, "% Inhibition (Average) of VEGF-C-mediated KDR activity, antibody 100 nM": 84, "% Inhibition (N = 1) of VEGF-C-mediated KDR activity, antibody 1 nM": 47, "% Inhibition (N = 1) of VEGF-C-mediated KDR activity, antibody 10 nM": 81, "% Inhibition (N = 1) of VEGF-C-mediated KDR activity, antibody 100 nM": 84, "% Inhibition (N = 2) of VEGF-C-mediated KDR activity, antibody 1 nM": 33, "% Inhibition (N = 2) of VEGF-C-mediated KDR activity, antibody 10 nM": 85, "% Inhibition (N = 2) of VEGF-C-mediated KDR activity, antibody 100 nM": 84}, {"binder": "B2", "% Inhibition (Average) of VEGF-C-mediated KDR activity, antibody 1 nM": 27, "% Inhibition (Average) of VEGF-C-mediated KDR activity, antibody 10 nM": 65, "% Inhibition (Average) of VEGF-C-mediated KDR activity, antibody 100 nM": 74, "% Inhibition (N = 1) of VEGF-C-mediated KDR activity, antibody 1 nM": 38, "% Inhibition (N = 1) of VEGF-C-mediated KDR activity, antibody 10 nM": 74, "% Inhibition (N = 1) of VEGF-C-mediated KDR activity, antibody 100 nM": 71, "% Inhibition (N = 2) of VEGF-C-mediated KDR activity, antibody 1 nM": 17, "% Inhibition (N = 2) of VEGF-C-mediated KDR activity, antibody 10 nM": 56, "% Inhibition (N = 2) of VEGF-C-mediated KDR activity, antibody 100 nM": 77}, {"binder": "B3", "% Inhibition (Average) of VEGF-C-mediated KDR activity, antibody 1 nM": 39, "% Inhibition (Average) of VEGF-C-mediated KDR activity, antibody 10 nM": 78, "% Inhibition (Average) of VEGF-C-mediated KDR activity, antibody 100 nM": 75, "% Inhibition (N = 1) of VEGF-C-mediated KDR activity, antibody 1 nM": 40, "% Inhibition (N = 1) of VEGF-C-mediated KDR activity, antibody 10 nM": 75, "% Inhibition (N = 1) of VEGF-C-mediated KDR activity, antibody 100 nM": 73, "% Inhibition (N = 2) of VEGF-C-mediated KDR activity, antibody 1 nM": 38, "% Inhibition (N = 2) of VEGF-C-mediated KDR activity, antibody 10 nM": 80, "% Inhibition (N = 2) of VEGF-C-mediated KDR activity, antibody 100 nM": 77}, {"binder": "B4", "% Inhibition (Average) of VEGF-C-mediated KDR activity, antibody 1 nM": 43, "% Inhibition (Average) of VEGF-C-mediated KDR activity, antibody 10 nM": 77, "% Inhibition (Average) of VEGF-C-mediated KDR activity, antibody 100 nM": 81, "% Inhibition (N = 1) of VEGF-C-mediated KDR activity, antibody 1 nM": 55, "% Inhibition (N = 1) of VEGF-C-mediated KDR activity, antibody 10 nM": 76, "% Inhibition (N = 1) of VEGF-C-mediated KDR activity, antibody 100 nM": 75, "% Inhibition (N = 2) of VEGF-C-mediated KDR activity, antibody 1 nM": 31, "% Inhibition (N = 2) of VEGF-C-mediated KDR activity, antibody 10 nM": 79, "% Inhibition (N = 2) of VEGF-C-mediated KDR activity, antibody 100 nM": 86}, {"binder": "B5", "% Inhibition (Average) of VEGF-C-mediated KDR activity, antibody 1 nM": 34, "% Inhibition (Average) of VEGF-C-mediated KDR activity, antibody 10 nM": 71, "% Inhibition (Average) of VEGF-C-mediated KDR activity, antibody 100 nM": 76, "% Inhibition (N = 1) of VEGF-C-mediated KDR activity, antibody 1 nM": 42, "% Inhibition (N = 1) of VEGF-C-mediated KDR activity, antibody 10 nM": 71, "% Inhibition (N = 1) of VEGF-C-mediated KDR activity, antibody 100 nM": 74, "% Inhibition (N = 2) of VEGF-C-mediated KDR activity, antibody 1 nM": 25, "% Inhibition (N = 2) of VEGF-C-mediated KDR activity, antibody 10 nM": 72, "% Inhibition (N = 2) of VEGF-C-mediated KDR activity, antibody 100 nM": 79}, {"binder": "B6", "% Inhibition (Average) of VEGF-C-mediated KDR activity, antibody 1 nM": 49, "% Inhibition (Average) of VEGF-C-mediated KDR activity, antibody 10 nM": 62, "% Inhibition (Average) of VEGF-C-mediated KDR activity, antibody 100 nM": 68, "% Inhibition (N = 1) of VEGF-C-mediated KDR activity, antibody 1 nM": 45, "% Inhibition (N = 1) of VEGF-C-mediated KDR activity, antibody 10 nM": 61, "% Inhibition (N = 1) of VEGF-C-mediated KDR activity, antibody 100 nM": 64, "% Inhibition (N = 2) of VEGF-C-mediated KDR activity, antibody 1 nM": 53, "% Inhibition (N = 2) of VEGF-C-mediated KDR activity, antibody 10 nM": 62, "% Inhibition (N = 2) of VEGF-C-mediated KDR activity, antibody 100 nM": 73}, {"binder": "B7", "% Inhibition (Average) of VEGF-C-mediated KDR activity, antibody 1 nM": 32, "% Inhibition (Average) of VEGF-C-mediated KDR activity, antibody 10 nM": 69, "% Inhibition (Average) of VEGF-C-mediated KDR activity, antibody 100 nM": 79, "% Inhibition (N = 1) of VEGF-C-mediated KDR activity, antibody 1 nM": 29, "% Inhibition (N = 1) of VEGF-C-mediated KDR activity, antibody 10 nM": 75, "% Inhibition (N = 1) of VEGF-C-mediated KDR activity, antibody 100 nM": 83, "% Inhibition (N = 2) of VEGF-C-mediated KDR activity, antibody 1 nM": 36, "% Inhibition (N = 2) of VEGF-C-mediated KDR activity, antibody 10 nM": 64, "% Inhibition (N = 2) of VEGF-C-mediated KDR activity, antibody 100 nM": 75}, {"binder": "B8", "% Inhibition (Average) of VEGF-C-mediated KDR activity, antibody 1 nM": 28, "% Inhibition (Average) of VEGF-C-mediated KDR activity, antibody 10 nM": 84, "% Inhibition (Average) of VEGF-C-mediated KDR activity, antibody 100 nM": 94, "% Inhibition (N = 1) of VEGF-C-mediated KDR activity, antibody 1 nM": 23, "% Inhibition (N = 1) of VEGF-C-mediated KDR activity, antibody 10 nM": 78, "% Inhibition (N = 1) of VEGF-C-mediated KDR activity, antibody 100 nM": 93, "% Inhibition (N = 2) of VEGF-C-mediated KDR activity, antibody 1 nM": 34, "% Inhibition (N = 2) of VEGF-C-mediated KDR activity, antibody 10 nM": 90, "% Inhibition (N = 2) of VEGF-C-mediated KDR activity, antibody 100 nM": 95}]}]}
